These results are taken from US20260226133A1 (ANGELES THERAPEUTICS, published 2026).

The target of one assay is T1, CD19 (UniProt P15391 20-556, limits assumed).
T1 construct: whole, on cells
T1 sequence (looked up): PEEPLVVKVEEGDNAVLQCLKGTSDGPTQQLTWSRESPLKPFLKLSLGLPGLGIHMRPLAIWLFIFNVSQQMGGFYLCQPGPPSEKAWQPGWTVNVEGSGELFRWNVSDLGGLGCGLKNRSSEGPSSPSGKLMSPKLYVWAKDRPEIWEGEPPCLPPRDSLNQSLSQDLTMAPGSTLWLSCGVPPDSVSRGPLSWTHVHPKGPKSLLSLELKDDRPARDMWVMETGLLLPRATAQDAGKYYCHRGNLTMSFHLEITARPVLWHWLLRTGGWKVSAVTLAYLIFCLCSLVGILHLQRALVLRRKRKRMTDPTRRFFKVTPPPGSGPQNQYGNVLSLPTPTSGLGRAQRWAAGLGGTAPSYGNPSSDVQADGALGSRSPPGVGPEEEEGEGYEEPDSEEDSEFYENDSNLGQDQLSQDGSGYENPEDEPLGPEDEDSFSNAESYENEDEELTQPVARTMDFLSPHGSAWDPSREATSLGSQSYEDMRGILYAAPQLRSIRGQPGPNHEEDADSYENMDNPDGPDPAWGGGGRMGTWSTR
As to the kind of experiment: Malibu-Glo assay; NLuc fusion supernatant on RAJI cells, control Jurkat cells.

Assay [1] deals with T2, BCMA (UniProt Q02223 1-184, limits assumed).
T2 construct: whole, on cells; also called TNF receptor family member B cell maturation (BCMA)
T2 sequence (looked up): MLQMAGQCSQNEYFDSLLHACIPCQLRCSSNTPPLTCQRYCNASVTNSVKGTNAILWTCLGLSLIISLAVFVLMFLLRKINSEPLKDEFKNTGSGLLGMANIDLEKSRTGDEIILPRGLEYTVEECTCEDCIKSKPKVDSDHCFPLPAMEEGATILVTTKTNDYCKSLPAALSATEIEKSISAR
The experiment in a line: Malibu-Glo assay; NLuc fusion supernatant on L363 cells, control Jurkat cells.

For assay [2], the target named is T2, BCMA. The experiment in a line: Malibu-Glo assay; NLuc fusion supernatant on H929 cells, control K562 cells.
The target in a further assay is T3, CD20 (UniProt P11836 1-297, limits assumed).
T3 construct: whole, on cells
T3 sequence (looked up): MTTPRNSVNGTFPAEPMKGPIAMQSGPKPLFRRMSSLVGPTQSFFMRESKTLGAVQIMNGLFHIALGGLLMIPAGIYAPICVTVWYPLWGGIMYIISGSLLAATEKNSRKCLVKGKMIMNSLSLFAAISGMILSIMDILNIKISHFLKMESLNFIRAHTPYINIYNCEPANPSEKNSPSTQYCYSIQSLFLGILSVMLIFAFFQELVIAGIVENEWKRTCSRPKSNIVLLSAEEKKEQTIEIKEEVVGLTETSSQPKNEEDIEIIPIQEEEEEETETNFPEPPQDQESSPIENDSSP
As to the kind of experiment: Malibu-Glo assay; NLuc fusion supernatant on RAJI cells, control K562 cells.

In the next assay the target is T4, IL23R (UniProt Q5VWK5 24-629, limits assumed).
T4 construct: whole, on cells
T4 sequence (looked up): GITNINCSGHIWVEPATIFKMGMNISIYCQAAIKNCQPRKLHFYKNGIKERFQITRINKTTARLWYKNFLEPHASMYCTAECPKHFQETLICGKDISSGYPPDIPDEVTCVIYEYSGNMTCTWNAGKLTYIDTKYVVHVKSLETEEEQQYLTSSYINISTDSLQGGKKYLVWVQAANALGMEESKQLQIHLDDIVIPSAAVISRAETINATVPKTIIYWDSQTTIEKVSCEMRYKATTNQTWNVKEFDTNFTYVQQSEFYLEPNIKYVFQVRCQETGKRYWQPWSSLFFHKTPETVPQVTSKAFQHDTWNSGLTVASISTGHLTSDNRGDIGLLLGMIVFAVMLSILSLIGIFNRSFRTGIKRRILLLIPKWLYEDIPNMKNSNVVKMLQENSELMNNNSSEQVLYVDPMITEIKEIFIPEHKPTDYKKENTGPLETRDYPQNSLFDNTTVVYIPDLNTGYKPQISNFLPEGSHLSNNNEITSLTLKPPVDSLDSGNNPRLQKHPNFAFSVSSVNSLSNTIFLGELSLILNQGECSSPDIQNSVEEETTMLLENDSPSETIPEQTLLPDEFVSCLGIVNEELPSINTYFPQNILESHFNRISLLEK
The experiment in a line: Malibu-Glo assay; NLuc fusion supernatant on L363 cells, control K562 cells.

The next assay has as its target T5, CD33 (UniProt P20138 18-364, limits assumed).
T5 construct: whole, on cells
The experiment in a line: Malibu-Glo assay; NLuc fusion supernatant on HL60 cells, control Jurkat cells.

Another assay addresses T6, DLL3 (UniProt Q9NYJ7 27-618, limits assumed).
T6 construct: whole, on cells
T6 sequence (looked up): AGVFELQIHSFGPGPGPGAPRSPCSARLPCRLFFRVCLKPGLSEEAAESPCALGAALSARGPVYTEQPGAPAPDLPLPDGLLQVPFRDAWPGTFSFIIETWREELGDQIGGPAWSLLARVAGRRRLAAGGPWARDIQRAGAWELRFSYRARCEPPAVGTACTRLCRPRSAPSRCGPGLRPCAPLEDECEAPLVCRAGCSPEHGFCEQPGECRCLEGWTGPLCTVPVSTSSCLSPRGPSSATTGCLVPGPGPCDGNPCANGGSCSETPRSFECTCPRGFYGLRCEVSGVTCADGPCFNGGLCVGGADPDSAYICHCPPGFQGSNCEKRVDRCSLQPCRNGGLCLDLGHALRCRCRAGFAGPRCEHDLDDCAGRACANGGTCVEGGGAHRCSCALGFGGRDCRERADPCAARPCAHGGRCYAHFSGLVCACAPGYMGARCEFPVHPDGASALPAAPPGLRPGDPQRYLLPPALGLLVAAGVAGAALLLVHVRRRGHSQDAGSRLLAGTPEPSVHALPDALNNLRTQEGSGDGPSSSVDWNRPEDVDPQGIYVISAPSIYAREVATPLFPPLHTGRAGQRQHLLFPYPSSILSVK
The experiment in a line: Malibu-Glo assay; NLuc fusion supernatant on NCI-H82 cells, control K562 cells.

The next assay deals with T7, TAJ/TNFRSF19 (UniProt Q9NS68 30-423, limits assumed).
T7 construct: whole, on cells
T7 sequence (looked up): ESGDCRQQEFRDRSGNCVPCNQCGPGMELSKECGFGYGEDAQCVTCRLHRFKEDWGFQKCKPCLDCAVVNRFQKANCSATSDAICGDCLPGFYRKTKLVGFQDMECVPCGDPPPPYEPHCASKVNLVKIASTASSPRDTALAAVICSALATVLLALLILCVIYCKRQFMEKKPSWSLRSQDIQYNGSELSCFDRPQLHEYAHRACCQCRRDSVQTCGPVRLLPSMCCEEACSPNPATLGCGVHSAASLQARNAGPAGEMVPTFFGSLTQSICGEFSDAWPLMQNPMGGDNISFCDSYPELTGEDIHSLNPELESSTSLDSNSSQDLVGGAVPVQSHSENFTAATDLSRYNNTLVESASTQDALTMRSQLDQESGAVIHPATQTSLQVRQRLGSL
As to the kind of experiment: Malibu-Glo assay; NLuc fusion supernatant on LNCaP cells, control 293FT cells.

A further assay deals with T8, STEAP2 (UniProt Q8NFT2 1-490, limits assumed).
T8 construct: whole, on cells
T8 sequence (looked up): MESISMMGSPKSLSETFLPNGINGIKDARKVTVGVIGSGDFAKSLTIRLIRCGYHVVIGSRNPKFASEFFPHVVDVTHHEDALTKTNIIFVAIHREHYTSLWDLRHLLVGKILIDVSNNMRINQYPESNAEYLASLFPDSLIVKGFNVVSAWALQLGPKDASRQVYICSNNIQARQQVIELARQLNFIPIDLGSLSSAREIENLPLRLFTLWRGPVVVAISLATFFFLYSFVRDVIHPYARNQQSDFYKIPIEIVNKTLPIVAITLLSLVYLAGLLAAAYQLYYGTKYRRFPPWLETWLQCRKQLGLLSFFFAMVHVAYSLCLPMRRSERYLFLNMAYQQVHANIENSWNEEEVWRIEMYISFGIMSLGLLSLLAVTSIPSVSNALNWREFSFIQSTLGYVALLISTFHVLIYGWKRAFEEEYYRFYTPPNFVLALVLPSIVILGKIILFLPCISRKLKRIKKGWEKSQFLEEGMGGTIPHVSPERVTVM
The experiment in a line: Malibu-Glo assay; NLuc fusion supernatant on LNCaP cells, control K562 cells.

T5 sequence (P20138 18-364 limits assumed): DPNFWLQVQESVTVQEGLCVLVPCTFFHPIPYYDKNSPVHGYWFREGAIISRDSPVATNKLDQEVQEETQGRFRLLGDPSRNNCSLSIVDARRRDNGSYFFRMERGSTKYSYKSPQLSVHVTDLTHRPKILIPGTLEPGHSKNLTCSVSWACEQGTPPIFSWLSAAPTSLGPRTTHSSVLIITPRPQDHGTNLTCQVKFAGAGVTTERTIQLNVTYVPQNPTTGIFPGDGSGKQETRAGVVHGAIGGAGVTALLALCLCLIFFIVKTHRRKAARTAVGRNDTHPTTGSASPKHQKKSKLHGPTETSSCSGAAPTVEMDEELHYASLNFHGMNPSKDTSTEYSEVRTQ

B1: hu-mROO5-1 scFv (CD19), NLuc fusion (scFv)
chain: DIQMTQSPSSLSASVGDRVTITCKASDHINNWLAWYQQKPGQAPKLLIYGATTLETGVPSRFSGSGSGTDYTLTISSLQPEDFATYYCQQSWNTPWTFGQGTKLEIKRGGGGSGGGGSGGGGSQVQLQQPGAELVKPGASVKMSCKASGYAFSSYWINWMKQKPGQGLEWIGQIYPGDGDTNYNGKFKGRATLTADTSSSTAYMQLSSLTSEDSAVYFCARSITTVVGCAMDYWGQGTSVTVSS
On to B1, for which, in the assay with CD19, the “Fold Change (Luc activity, target cell line over control cell line)” value (from here on “Fold Change”) was 933 fold.

B2: hu-E59D-US3 vHH (BCMA), NLuc fusion (VHH)
VHH: EVQLVESGGGLVQPGGSLRLSCAASGRTFTMGWFRQAPGKGREFVAAISLSPTLAYYADSVKGRFTISRDNSKNTVVLQMNSLRAEDTAVYYCAADRKSVMSIRPDYWGQGTQVTVSS
Regarding B2, in the assay with BCMA [1], the “Fold Change” value was 2 fold.

B3: E59D-USC1 vHH (BCMA), NLuc fusion (VHH)
VHH: QVQLVESGGGLVQPGGSLRLSCAASGRTFTMGWYRQAPGKGLEFVSAISLSPTLAYYADSVKGRFTISRDNSKNTVVLQMNSLRAEDTALYYCAADRKSVMSIRPDYWGQGTLVTVSS
For B3, the “Fold Change” value with BCMA [2] was 2.57 fold.

B4: huE59D-AT2 vHH (BCMA), NLuc fusion (VHH)
VHH: EVQLVESGGGLVQPGGSLRLSCAASGRTFTMGWYRQAPGKEREFVAAISLSPTLAYYADSVKGRFTISRDNSKNTVVLQMNSLRAEDTALYYCAADRKSVMSIRPDYWGQGTLVTVSS
With B4, the “Fold Change” value in the assay with BCMA [2] was found to be 2.99 fold.

B5: huCD20-AT1 vHH (CD20), NLuc fusion (VHH)
VHH: EVQLLESGGGLVQPGGSLRLSCAASGRTFSMGWYRQAPGKGLEFVSAITYSGGSPYYADSVKGRFTISRDNSKNTVYLQMNSLRAEDTAVYYCAANPTYGSDWNAENWGQGTLVTVSS
On to B5, for which the “Fold Change” value with CD20 worked out at 15.6 fold.

B6: IL23R-SANG-11 scFv (IL23R), NLuc fusion (scFv)
chain: DIQMTQSPSSLSASVGDRVTITCQASENIYSFLAWYQQKPGKAPKLLIYSASKLAAGVPSRFSGSGSGTDFTLTISSLQPEDFATYYCQQTNRYSNPDIYNVFGQGTKLTVLGGGGGSGGGGSGGGGSEVQLVESGGGLVQPGGSLRLSCAASGIDFNSNYYMCWVRQAPGKGLEWIGCIYVGSHVNTYYANWAKGRFTISRDNSKNTVYLQMNSLRAEDTAVYYCATSGSSVLYFKFWGQGTLVTVSS
Take B6: in the assay with IL23R, the “Fold Change” value stood at 2.37 fold.

B7: AT264-S30G vHH (CD33), NLuc fusion (VHH)
VHH: EVQLVESGGGSVQAGGSLRLSCAASGYTYGINCMGWFRQAPGKEREGVAVISTGGGRTDYRDSVKGRFTISQDNAKNTVYLQMNSLKPEDTAMYYCAGKTTYPGYGCGLGRSAYNYWGQGTQVTVSS
In the case of B7, the “Fold Change” value in the assay with CD33 is 28 fold.

B8: DLL3-USC5 vHH (DLL3), NLuc fusion (VHH)
VHH: QVQLVESGGGVVQPGGSLRLSCAASFSGYGVSTMAWFRQAPGKGLEGVAAITVGSGNTYYADSVKGRFTISRDNSKNTVYLQMNSLRAEDTAMYYCAVGWLSGGSWHVPGRYNYWGQGTLVTVSS
In the case of B8, in the assay with DLL3, the “Fold Change” value was found to be 1.7 fold.

B9: KN5-USC1-R3D scFv (TAJ), NLuc fusion (scFv)
chain: QIVLTQSPAIMSASPGEKVTMTCSASSSVSFMHWYQQKSGTSPKRWIYDTSTLASGVPARFGGSGSGTSYSLTISSMEAEDAATYYCQQWSSNPLTFGAGTKLELKRGGGGSGGGGSGGGGSQVQLQQSGPELVKPGASVRISCKASGYTFTSYYIHWVKQRPGQGLEWIGWIYPGNLNTKYNEKFKGKATLTADKSSSTAYMQLSSLTSEDSAVYFCARYDWYFDVWGAGTTVTVSS
B9: the “Fold Change” value in the assay with TAJ/TNFRSF19 was determined as 4.35 fold.

B10: STEAP2-RGN-1162-USC1 scFv (STEAP2), NLuc fusion (scFv)
chain: QVQLQQSGPGLVKPSQTLSLTCAISGDSVSSNRAAWNWIRQSPSRGLQWLGRTYYRSKWYNDYAVSLRSRITINPVTSKNQVALHMNSVTPEDTAVYYCARAGIVVVPGPETFYYYDHGLDVWGQGTTVTVSSGGGGSGGGGSGGGGSDIQMTQSPSSLSASVGDRVTITCRASQSIRNYLNWYQQKPGKAPELLIHAASSLQSGVPSRFSGSGSGTDFTLTISSLQPEDFASYYCQQSYSAPPITFGQGTRLEIK
On to B10, for which the “Fold Change” value with STEAP2 was determined as 27.4 fold.
